Measured values published in patent US20240409645A1 (DUALYX, published 2024).

T1: human interleukin-2 receptor β-chain (IL-2Rβ; CD122), recombinant protein (human, UniProt P14784 27-240)
T1 construct: also called human IL-2R subunit CD122
T1 sequence: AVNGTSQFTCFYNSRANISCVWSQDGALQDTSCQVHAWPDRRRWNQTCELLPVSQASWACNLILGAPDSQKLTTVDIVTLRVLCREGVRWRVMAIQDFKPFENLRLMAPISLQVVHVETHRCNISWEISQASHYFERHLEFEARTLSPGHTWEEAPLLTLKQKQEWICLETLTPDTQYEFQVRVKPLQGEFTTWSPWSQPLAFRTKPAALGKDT

T2: mouse IL-2Rγ (mouse, UniProt P34902 23-263, limits assumed)
T2 construct: Recombinant mouse IL-2Rγ protein coated on the ELISA plate or immobilised on the CM5 chip; also called mo IL-2R
T2 sequence (looked up): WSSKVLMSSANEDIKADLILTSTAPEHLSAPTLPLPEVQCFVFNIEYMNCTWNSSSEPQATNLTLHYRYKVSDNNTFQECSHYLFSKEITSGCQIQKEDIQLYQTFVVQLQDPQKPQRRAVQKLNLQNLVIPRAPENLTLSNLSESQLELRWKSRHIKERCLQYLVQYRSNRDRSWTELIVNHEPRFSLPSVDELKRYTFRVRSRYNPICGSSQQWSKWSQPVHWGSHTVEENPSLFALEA

T3: human IL-2Rγ (common cytokine receptor γ-chain) (human, UniProt P31785 23-262, limits assumed)
T3 construct: Recombinant human IL-2Rγ protein coated on the ELISA plate or immobilised on the CM5 chip; also called hu IL-2R; CD132
T3 sequence: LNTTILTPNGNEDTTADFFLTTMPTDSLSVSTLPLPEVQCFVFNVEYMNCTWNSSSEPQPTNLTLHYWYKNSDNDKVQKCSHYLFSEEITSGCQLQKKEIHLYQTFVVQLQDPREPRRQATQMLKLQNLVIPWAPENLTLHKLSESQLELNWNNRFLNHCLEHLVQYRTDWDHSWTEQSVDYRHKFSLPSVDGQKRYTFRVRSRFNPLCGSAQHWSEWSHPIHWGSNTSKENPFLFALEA

T4: human common cytokine receptor γ-chain (γc; IL-2Rγ; CD132), recombinant protein (human, UniProt P31785 23-262)
T4 construct: also called human IL-2R subunit CD132
T4 sequence: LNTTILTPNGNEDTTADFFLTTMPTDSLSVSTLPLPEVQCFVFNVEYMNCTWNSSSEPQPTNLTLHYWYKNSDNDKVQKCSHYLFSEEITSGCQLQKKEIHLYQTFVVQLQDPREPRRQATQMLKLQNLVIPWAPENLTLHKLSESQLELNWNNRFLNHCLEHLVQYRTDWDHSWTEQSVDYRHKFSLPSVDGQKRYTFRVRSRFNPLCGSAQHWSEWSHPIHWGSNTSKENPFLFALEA


Assays:
[1] = biological target: T1, human interleukin-2 receptor β-chain …; assay: P.E. binding ELISA
Outline: (§1)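 Human or mouse IL-2Rα, IL-2Rβ or IL-2Rγ protein coated directly overnight at 4° C, blocked with 4% Marvel/PBS for 1 hour.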

[2] = biological target: T1, human interleukin-2 receptor β-chain …; assay: P.E. off-rate SPR
Outline: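 Immobilised receptor density: ~2500 RU (CM5, amine coupling). Analyte: VHH-containing P.E., 30 uL/min. Read-out: off-rate over 120s.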

[3] = biological target: T2, mouse IL-2Rγ; assay: binding ELISA, periplasmic extract on coated mouse IL-2Rγ
Protocol: (§2) In a binding ELISA, human or mouse IL-2Rα, IL-2Rβ and IL-2Rγ proteins were coated directly on maxisorp microtiter plates overnight at 4° C. Free binding sites were blocked using 4% Marvel in PBS for 1 hour. Next, 1:5 dilution of P.E. in 1% Marvel/PBS were added to wells and incubated for 1 hour. […] Binding specificity was determined based on O.D. at 450 nm values compared to negative controls.

[4] = biological target: T3, human IL-2Rγ (common cytokine receptor …); assay: SPR off-rate ranking, periplasmic extract over immobilised human IL-2Rγ
Protocol: (§3) SPR was performed to determine dissociation rates using Biacore 3000 instrument (GE Healthcare). Briefly, human and mouse IL-2R proteins were immobilized on carboxylmethyl dextran sensor chip (CM5) at approximately 2500 RUs using amine coupling in acetate buffer (GE Healthcare). The VHH-containing P.E. were loaded with a flow rate of 30 uL/min and the off-rates were measured over a 120s period.

[5] = biological target: T3, human IL-2Rγ (common cytokine receptor …); assay: binding ELISA, periplasmic extract on coated human IL-2Rγ
Protocol: as §2

[6] = biological target: T2, mouse IL-2Rγ; assay: SPR off-rate ranking, periplasmic extract over immobilised mouse IL-2Rγ
Protocol: as §3

[7] = biological target: T4, human common cytokine receptor γ-chain …; assay: P.E. binding ELISA
Outline: as §1

Binder | OD450 nm [1] | koff [2] | P.E. binding ELISA OD450 [3] | koff [4] | P.E. binding ELISA OD450 [5] | koff [6] | OD450 nm [7]
16-MP02B08 VHH (periplasmic extract) (VHH, soluble VHH in periplasmic extract) VHH: EVQLVESGGGLVQAGGSLRLSCAASGRAIENYPVGWFRQAPGKEREFVAAITWISGSTLYADSVKGRFTISRDNAKNTVYLQMSSLKPEDTALYYCAAALKTITRGQNDYSYWGQGTQVTVSS | 1.38 OD450 nm | 0.000141 s⁻¹ | – | – | – | – | –
FJ1427_P035MP07E11 (VHH, Tested as soluble VHH fragment in periplasmic extract (P.E.); also called Clone nr) VHH: QVQLVESGGGLVQAGGSLRLSCAASGRTLSRYAMGWFRQAPGKEREFVTANSWGGDTYYADSVQGRFTFSRDNAKNTVYLQMNSLQPEDTAVYYCAAAPTSFATTAYSSSNSYAYWGQGTQVTVSS | – | – | 0.045 OD450 nm | 0.00304 s⁻¹ | 0.398 OD450 nm | 0.109 s⁻¹ | –
FJ1427_P035MP07A12 (VHH, Tested as soluble VHH fragment in periplasmic extract (P.E.); also called Clone nr) VHH: QVQLQESGGGLVQAGGSLRLSCAASGRTLSRYAMGWFRQAPGSEREFVAASSWGGDTFYADSVEGRFTFSRDNAKNAVYLQMNSLQPEDTAAYYCAAAPTSFPTTAYSSSNSYAYWGQGTQVTVSS | – | – | – | 0.0027 s⁻¹ | 0.485 OD450 nm | – | –
FJ1427_P035MP07E12 (VHH, Tested as soluble VHH fragment in periplasmic extract (P.E.); also called Clone nr) VHH: QVQLVESGGGLVQAGGSLRLSCAASGRTLSRYAMGWFRQAPGKEREFVTANSWGGDTYYTDSVEGRFTFSRDNAKNAVYLQMNSLQPEDTAVYYCAAAPTSFATTAYSSSNSYTYWGQGTQVTVSS | – | – | 0.05 OD450 nm | 0.00305 s⁻¹ | 0.956 OD450 nm | 0.0883 s⁻¹ | –
FJ1427_P035MP07G11 (VHH, Tested as soluble VHH fragment in periplasmic extract (P.E.); also called Clone nr) VHH: QVQLQESGGGLVQAGGSLRLSCAASGRTLSRYAMGWFRQAPGKEREFVTANSWGGDTYYADSVQGRFTFSRDNAKNTVYLQMNSLQPEDTAVYYCAAAPTSFATTAYSSSNSYAYWGQGTQVTVSS | – | – | 0.046 OD450 nm | 0.00351 s⁻¹ | 0.999 OD450 nm | 0.099 s⁻¹ | –
FJ1427_P035MP07F11 (VHH, Tested as soluble VHH fragment in periplasmic extract (P.E.); also called Clone nr) VHH: QVQLVESGGGLVQAGGSLRLSCAASGRTLSRLAMGWFRQAPGKEREFVAVNSWGGDTFYADSVEGRFTYSRDNAKSAVYLQMNSLQPEDTAVYYCAAAPTSFATTAYSSSNSYAYWGQGTQVTVSS | – | – | 0.686 OD450 nm | 0.00131 s⁻¹ | 0.983 OD450 nm | 0.00757 s⁻¹ | –
FJ1427_P035MP07B12 (VHH, Tested as soluble VHH fragment in periplasmic extract (P.E.); also called Clone nr) VHH: EVQLVESGGGLVQAGGSLRLSCAASGRTLSRYAMGWFRQAPGKEREYVAIDSWGGDTFYADSVEGRFTFSRDNAKNEVYLQMNSLQPEDTAVYYCAGAPTSFATTAYSSSNSYRYWGQGTQVTVSS | – | – | 0.7 OD450 nm | 0.00153 s⁻¹ | 1.79 OD450 nm | 0.00766 s⁻¹ | –
FJ1427_P035MP07D12 (VHH, Tested as soluble VHH fragment in periplasmic extract (P.E.); also called Clone nr; 668) VHH: QVQLVESGGGLVQAGGSLRLSCAASGRALSRLAMGWFRQAPGKEREFVVASSWGDDTFYADSVKGRFTFSRDNAKNTVYLQMNSLQPGDTAVYYCAAAPTSFATTAYSSSNSYAYWGQGTQVTVSS | – | – | 0.051 OD450 nm | 0.00199 s⁻¹ | 0.511 OD450 nm | 0.0122 s⁻¹ | –
FJ1427_P035MP07H11 (VHH, Tested as soluble VHH fragment in periplasmic extract (P.E.); also called Clone nr; 664) VHH: QVQLVESGGGLVQPGGSLRLSCAASGRTLSRYAMGWFRQAPGKDREFVAASSWGGDTFYADSVEGRFTFSRDNAENATYLQMNSLQPEDTAVYYCAAAPTSFATTAYSSSNSYGSWGQGTQVTVSS | – | – | 0.057 OD450 nm | 0.00252 s⁻¹ | 1.32 OD450 nm | 0.066 s⁻¹ | –
FJ1427_P035MP07C11 (VHH, Tested as soluble VHH fragment in periplasmic extract (P.E.); also called Clone nr) VHH: QVQLVESGGGLVQAGASLRLSCAASGRTLSRYAMGWFRQAPGKEREFVAASSWGGDTYYADSVEGRFTFSRDNAKNAVYLQMNSLQPEDTAVYYCAGAPTSFATTAYSSSNSYAYWGQGTQVTVSS | – | – | – | 0.00485 s⁻¹ | 0.858 OD450 nm | – | –
35-MP07G01 VHH (periplasmic extract) (VHH, soluble VHH in periplasmic extract) VHH: QVQLQESGGGLVQGGGSLRLSCAASGGIFSSYAMGWFRQAPGKEREFVAAISRSGRSTNYADSVKGRFTISRDNAKSTVYLQMNSLKPEETAVYYCAAGRYYNSAYDPSPGDFGSWGHGTQVTVSS | – | – | – | – | – | – | 0.134 OD450 nm
22-MP03F12 VHH (periplasmic extract) (VHH, soluble VHH in periplasmic extract) VHH: EVQLVESGGGLVQAGGSLRLSCAASGSIFSINAMAWFRQVPGMERELVAAISRDGGASVYRDSVKGRFTISRDNSKNTVYLQMNTLKPEDTAIYVCAATRAIGWTARWITTDFDFWGQGTQVTVSS | 0.781 OD450 nm | 0.000419 s⁻¹ | – | – | – | – | –
19-MP03F08 VHH (periplasmic extract) (VHH, soluble VHH in periplasmic extract) VHH: EVQLVESGGGLVQTGGSLRLSCAASGGTFSRDAMAWFRQVPGKEREFVALISWSGATTNYADSVKGRFAISRDNGKNTVYLQMNRLKPADTAIYYCAADRRPMGSRSYFEPTEYDDWGQGTQVTVSS | 0.245 OD450 nm | 0.000296 s⁻¹ | – | – | – | – | –
24-MP06E05 VHH (periplasmic extract) (VHH, soluble VHH in periplasmic extract) VHH: QVQLVESGGELVQGGASLRLSCAASGRTFSNANMAWFRQAPEKEREFVALITWSSGSTLYADSVKGRFTISRDNARKMVYLQMNSLKPEDTAVYYCAADGPPYSGTYYRYDTYDYWGQGTQVTVSS | 0.355 OD450 nm | 0.000471 s⁻¹ | – | – | – | – | –
26-MP06A07 VHH (periplasmic extract) (VHH, soluble VHH in periplasmic extract) VHH: QVQLQESGGGLVQAGGSLRLSCAASGDVFVRYTMAWFRQAPGKEREFVASVTDSGRTTEYVDSVKGRFTVSRDNAKNTAYLQMNNLKPEDTAIYYCAANTDYFQIRSLDLNTWGQGTQVTVSS | 1.03 OD450 nm | 0.000363 s⁻¹ | – | – | – | – | –
23-MP06F03 VHH (periplasmic extract) (VHH, soluble VHH in periplasmic extract) VHH: QVQLVESGGGLVQAGGSLRLSCAVSGDVFVRYTMAWFRQAPGKEREFVASVTDSGRTTDYVHSVKGRFTVSRDNAKNTVYLQMNNLKPEDTAVYYCAANTDYFQIKSLDANTWGQGTQVTVSS | 0.54 OD450 nm | 0.00105 s⁻¹ | – | – | – | – | –
20-MP03F10 VHH (periplasmic extract) (VHH, soluble VHH in periplasmic extract) VHH: EVQLVESGGGLVQAGGSLRLSCAASGRDFSSYAMGWFRQAPGKEREFVVAITWTKRSTDFPDSVKGRFTISRDNAKNTVYLDMNSLKPEDTAVYYCASARGLPVTPLGDIIYWGEGTLVTVSS | 0.497 OD450 nm | 0.000595 s⁻¹ | – | – | – | – | –
15-MP02E06 VHH (periplasmic extract) (VHH, soluble VHH in periplasmic extract) VHH: QVQLVESGGGSVQPGGSLRLSCAASGFTFSNYAMSWVRQAPGKGLEWVASITGFGRGTDYADSVKGRFTISRDNAEDTLYLQMNSLKPEDTAVYYCAKYSSSTYYPPTPARGRDYRGQGTQVTVSS | 0.581 OD450 nm | 0.00169 s⁻¹ | – | – | – | – | –
18-MP03C03 VHH (periplasmic extract) (VHH, soluble VHH in periplasmic extract) VHH: QVQLVESGGGLVQPGGSLRLSCAISGGTLDSYGIGWVRQAPGKQREGVSCMSRSDDRTYYADSVKGRFTISKDSAKNTVYLQMTSLKPEDTAVYYCAAVDAYGCSLVQPTTYDFWGLGTQVTVSS | 0.405 OD450 nm | 0.000594 s⁻¹ | – | – | – | – | –
17-MP02C09 VHH (periplasmic extract) (VHH, soluble VHH in periplasmic extract) VHH: QVQLQESGGGLVQAGGSLRLSCVASGSVSSINGMAWYRQGADNQRVLVAAISRVGNTAYGDSVKGRFTISRQNARNTVYLQMNSLKPEDTAVYYCNADSWGGDDYWGQGTQVTVSS | 1.21 OD450 nm | 0.000848 s⁻¹ | – | – | – | – | –
